From the supplement of paper PMC5998384 come the findings set out here.

Data set [1] relates to HeLa Kyoto. Put plainly: solubility in G1/S (NP-40 vs SDS abundance) (log2 ratio); higher = more soluble. The conditions noted are these: cell cycle stage: G1/S.
The test system of data set [2] is HeLa Kyoto. Briefly: melting temperature (median over replicates), in situ; higher = more thermally stable.
Data set [3] deals with HeLa Kyoto. Put plainly: solubility change mitosis vs G1/S (difference of NP-40 vs SDS log2 ratios) (log2 ratio difference); higher = more soluble in mitosis.
Data set [4] relates to HeLa Kyoto. Briefly: thermal stability score vs G1/S (z-score of summed log2 fold changes over temperatures); higher = more thermally stable than in G1/S.
Where [5] appears, read: cell cycle stage: early G1 (4.5 h after nocodazole release).
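Wherever melting temperature (median over replicates), in situ is given: HeLa Kyoto cells synchronized by double thymidine or nocodazole block, proteins quantified by TMT10plex mass spectrometry, three independent biological replicates.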
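Wherever solubility change mitosis vs G1/S (difference of NP-40 vs SDS log2 ratios) is given: synchronized HeLa Kyoto cells (double thymidine block for G1/S, nocodazole release for mitosis), protein amounts in NP-40 versus SDS lysates quantified by mass spectrometry, three biological replicates.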
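Wherever solubility in G1/S (NP-40 vs SDS abundance) is given: HeLa Kyoto cells arrested at G1/S by double thymidine block, proteins quantified by TMT10plex mass spectrometry in mild NP-40 versus SDS extracts, three biological replicates.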
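Wherever thermal stability score vs G1/S (z-score of summed log2 fold changes over temperatures) is given: synchronized HeLa Kyoto cells, proteins quantified by TMT10plex mass spectrometry, three biological replicates, mitosis taken 0.5 h after nocodazole release, G1/S directly after double thymidine block.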

As to “MGGGWWWARAARLARLRFRRSLLPPQRPRSGGARGSFAPGHGPRAGASPPPVSELDRADAWLLRKAHETAFLSWFRNGLLASGIGVISFMQSDMGREAAYGFFLLGGLCVVWGSASYAVGLAALRGPMQLTLGGAAVGAGAVLAASLLWACAVGLYMGQLELDVELVPEDDGTASAEGPDEAGRPPPE [TMEM160]”, the “solubility in G1/S (log2)” value in the data set on HeLa Kyoto [1] was -0.112. For the same sequence, the melting temperature with HeLa Kyoto [2] (cell cycle stage: G1/S) is 54.2 °C; in the data set with HeLa Kyoto [2] (cell cycle stage: mitosis) it was 56.9 °C. Moreover, in the data set on HeLa Kyoto [3], the “solubility change mitosis (log2)” value is -0.0483. Further, the figures for the thermal stability score in the data set on HeLa Kyoto [4] (setting [5]) and with HeLa Kyoto [4] (cell cycle stage: mitosis) were -1.62 and -1.47, respectively.

For the sequence “MGGKLSKKKKGYNVNDEKAKEKDKKAEGAATEEEGTPKESEPQAAAEPAEAKEGKEKPDQDAEGKAEEKEGEKDAAAAKEEAPKAEPEKTEGAAEAKAEPPKAPEQEQAAPGPAAGGEAPKAAEAAAAPAESAAPAAGEEPSKEEGEPKKTEAPAAPAAQETKSDGAPASDSKPGSSEAAPSSKETPAATEAPSSTPKAQGPAASAEEPKPVEAPAANSDQTVTVKE [BASP1]”, in the data set on HeLa Kyoto [1], the “solubility in G1/S (log2)” value was -1.08. Also, the melting temperature in the data set on HeLa Kyoto [2] (cell cycle stage: G1/S) came out at 48.2 °C. For the same sequence, in the data set on HeLa Kyoto [3], the “solubility change mitosis (log2)” value stood at 0.98. The results for the thermal stability score with HeLa Kyoto [4] (setting [5]) and in the data set with HeLa Kyoto [4] (cell cycle stage: mitosis) were -5.91 and -9.69, respectively.

As for “MGGSASSQLDEGKCAYIRGKTEAAIKNFSPYYSRQYSVAFCNHVRTEVEQQRDLTSQFLKTKPPLAPGTILYEAELSQFSEDIKKWKERYVVVKNDYAVESYENKEAYQRGAAPKCRILPAGGKVLTSEDEYNLLSDRHFPDPLASSEKENTQPFVVLPKEFPVYLWQPFFRHGYFCFHEAADQKRFSALLSDCVRHLNHDYMKQMTFEAQAFLEAVQFFRQEKGHYGSWEMITGDEIQILSNLVMEELLPTLQTDLLPKMKGKKNDRKRTWLGLLEEAYTLVQHQVSEGLSALKEECRALTKGLEGTIRSDMDQIVNSKNYLIGKIKAMVAQPAEKSCLESVQPFLASILEELMGPVSSGFSEVRVLFEKEVNEVSQNFQTTKDSVQLKEHLDRLMNLPLHSVKMEPCYTKVNLLHERLQDLKSRFRFPHIDLVVQRTQNYMQELMENAVFTFEQLLSPHLQGEASKTAVAIEKVKLRVLKQYDYDSSTIRKKIFQEALVQITLPTVQKALASTCKPELQKYEQFIFADHTNMIHVENVYEEILHQILLDETLKVIKEAAILKKHNLFEDNMALPSESVSSLTDLKPPTGSNQASPARRASAILPGVLGSETLSNEVFQESEEEKQPEVPSSLAKGESLSLPGPSPPPDGTEQVIISRVDDPVVNPVATEDTAGLPGTCSSELEFGGTLEDEEPAQEEPEPITASGSLKALRKLLTASVEVPVDSAPVMEEDTNGESHVPQENEEEEEKEPSQAAAIHPDNCEESEVSEREAQPPCPEAHGEELGGFPEVGSPASPPASGGLTEEPLGPMEGELPGEACTLTAHEGRGGKCTEEGDASQQEGCTLGSDPICLSESQVSEEQEEMGGQSSAAQATASVNAEEIKVARIHECQWVVEDAPNPDVLLSHKDDVKEGEGGQESFPELPSEE [FAM129A]”, the “solubility in G1/S (log2)” value in the data set on HeLa Kyoto [1] came out at 0.169. The melting temperature in the data set on HeLa Kyoto [2] (cell cycle stage: G1/S) was 50 °C; in the data set on HeLa Kyoto [2] (cell cycle stage: mitosis) it was 49.7 °C. Besides, the “solubility change mitosis (log2)” value with HeLa Kyoto [3] is -0.0907. The thermal stability score was 1.18 in the data set with HeLa Kyoto [4] (setting [5]) and 2.35 in the data set with HeLa Kyoto [4] (cell cycle stage: mitosis).

Regarding “MGKKGKVGKSRRDKFYHLAKETGYRSRSAFKLIQLNRRFQFLQKARALLDLCAAPGGWLQVAAKFMPVSSLIVGVDLVPIKPLPNVVTLQQDITTERCRQALRKELKTWKVDVVLNDGAPNVGASWVHDAYSQAHLTLMALRLACDFLARGGSFITKVFRSRDYQPLLWIFQQLFRRVQATKPQASRHESAEIFVVCQGFLAPDKVDSKFFDPKFAFKEVEVQAKTVTELVTKKKPKAEGYAEGDLTLYHRTSVTDFLRAANPVDFLSKASEIMVDDEELAQHPATTEDIRVCCQDIRVLGRKELRSLLNWRTKLRRYVAKKLKEQAKALDISLSSGEEDEGDEEDSTAGTTKQPSKEEEEEEEEEQLNQTLAEMKAQEVAELKRKKKKLLREQRKQRERVELKMDLPGVSIADEGETGMFSLSTIRGHQLLEEVTQGDMSAADTFLSDLPRDDIYVSDVEDDGDDTSLDSDLDPEELAGVRGHQGLRDQKRMRLTEVQDDKEEEEEENPLLVPLEEKAVLQEEQANLWFSKGSFAGIEDDADEALEISQAQLLFENRRKGRQQQQKQQLPQTPPSCLKTEIMSPLYQDEAPKGTEASSGTEAATGLEGEEKDGISDSDSSTSSEEEESWEPLRGKKRSRGPKSDDDGFEIVPIEDPAKHRILDPEGLALGAVIASSKKAKRDLIDNSFNRYTFNEDEGELPEWFVQEEKQHRIRQLPVGKKEVEHYRKRWREINARPIKKVAEAKARKKRRMLKRLEQTRKKAEAVVNTVDISEREKVAQLRSLYKKAGLGKEKRHVTYVVAKKGVGRKVRRPAGVRGHFKVVDSRMKKDQRAQQRKEQKKKHKRK [FTSJ3]”, the “solubility in G1/S (log2)” value with HeLa Kyoto [1] is -2.41. For the same sequence, the melting temperature in the data set on HeLa Kyoto [2] (cell cycle stage: G1/S) came to 49.7 °C; in the data set on HeLa Kyoto [2] (cell cycle stage: mitosis), 52 °C. The “solubility change mitosis (log2)” value with HeLa Kyoto [3] was 1.11. Further, the thermal stability score with HeLa Kyoto [4] (setting [5]) is 4.05; in the data set on HeLa Kyoto [4] (cell cycle stage: mitosis), 7.76.
